Reference: patent US20240076315A1 (ALLIFE MEDICINE ZHUHAI, published 2024)
No end group written: not given here.

Target: T1, cell surface antigen PSMA on Lncap cell line with high PSMA expression (UniProt Q04609 1-750, limits assumed)
T1 construct: whole, on cells; Lncap is a prostate cancer cell line; also called Lncap cells
Test: immunofluorescence on Lncap cells (high PSMA expression), FITC marker
Procedure: Immunofluorescence detection was performed on KHL peptides in Lncap cell lines with high PSMA expression and PC3 cell lines with low PSMA expression, using FITC as the fluorescent marker.

T1 sequence (Q04609 whole entry): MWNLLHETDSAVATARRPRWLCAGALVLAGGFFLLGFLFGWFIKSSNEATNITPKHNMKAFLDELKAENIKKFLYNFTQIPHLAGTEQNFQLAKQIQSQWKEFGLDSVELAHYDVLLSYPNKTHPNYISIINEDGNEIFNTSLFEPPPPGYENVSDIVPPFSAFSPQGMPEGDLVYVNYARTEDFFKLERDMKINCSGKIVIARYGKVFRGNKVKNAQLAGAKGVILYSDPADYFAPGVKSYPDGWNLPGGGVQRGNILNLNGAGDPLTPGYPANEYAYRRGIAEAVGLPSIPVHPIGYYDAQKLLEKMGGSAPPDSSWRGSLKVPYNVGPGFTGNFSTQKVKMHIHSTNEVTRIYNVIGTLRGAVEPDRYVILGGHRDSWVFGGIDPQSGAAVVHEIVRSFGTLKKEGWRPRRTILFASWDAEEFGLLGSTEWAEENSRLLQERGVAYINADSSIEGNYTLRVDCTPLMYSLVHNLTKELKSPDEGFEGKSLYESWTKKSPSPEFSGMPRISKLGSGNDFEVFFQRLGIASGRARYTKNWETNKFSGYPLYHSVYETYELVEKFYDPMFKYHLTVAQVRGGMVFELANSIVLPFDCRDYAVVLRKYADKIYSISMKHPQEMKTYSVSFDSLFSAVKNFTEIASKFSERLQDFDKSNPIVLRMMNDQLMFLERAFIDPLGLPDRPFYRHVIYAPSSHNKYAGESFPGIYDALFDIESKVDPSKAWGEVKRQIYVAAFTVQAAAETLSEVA

binding result: binds
Binder: KHLHYHSSVRYG (also: FITC label, attachment site not given here, also called KHL peptide conjugate) [KHL peptide with FITC as the fluorescent marker]
